Percent Inhibition of Ligand-induced Interferon Stimulated Response Element (ISRE) Signaling by Soluble Receptors data for one molecule are collected here from US20040138122A1.

Holding throughout (assay): cell-based or functional assay
The target of test [1] is T1, zcyto24 (mouse IL-28A) (mouse) (UniProt Q4VK74).
T1 sequence: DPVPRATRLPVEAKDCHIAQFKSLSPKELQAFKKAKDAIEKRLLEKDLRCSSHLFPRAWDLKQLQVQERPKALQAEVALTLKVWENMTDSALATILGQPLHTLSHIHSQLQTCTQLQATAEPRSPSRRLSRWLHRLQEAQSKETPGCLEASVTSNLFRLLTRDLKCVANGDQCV

Test [2] has as its target zcyto21 (human IL-29) (human) (UniProt Q8IU54).
The target of test [3] is T2, zcyto20 (human IL-28A) (human) (UniProt Q8IZJ0).
T2 sequence: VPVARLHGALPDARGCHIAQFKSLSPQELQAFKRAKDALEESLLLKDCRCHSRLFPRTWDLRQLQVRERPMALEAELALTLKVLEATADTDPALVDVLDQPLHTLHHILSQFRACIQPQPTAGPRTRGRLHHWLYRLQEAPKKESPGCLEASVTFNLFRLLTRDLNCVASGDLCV

Chain of zcyto21 (human IL-29) (human) (Q8IU54 20-200): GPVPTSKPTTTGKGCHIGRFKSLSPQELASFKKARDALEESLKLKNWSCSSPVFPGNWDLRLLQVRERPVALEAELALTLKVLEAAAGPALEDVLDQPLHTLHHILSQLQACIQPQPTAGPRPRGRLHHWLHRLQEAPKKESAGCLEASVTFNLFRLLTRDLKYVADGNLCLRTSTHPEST

B1: human zcytor19-Fc homodimer (Fc fusion, not shown: a dimerising Fc or GST)
chain: RPRLAPPQNVTLLSQNFSVYLTWLPGLGNPQDVTYFVAYQSSPTRRRWREVEECAGTKELLCSMMCLKKQDLYNKFKGRVRTVSPSSKSPWVESEYLDYLFEVEPAPPVLVLTQTEEILSANATYQLPPCMPPLDLKYEVAFWKEGAGNKTLFPVTPHGQPVQITLQPAASEHHCLSARTIYTFSVPKYSKFSKPTCFLLEVPEAN
As to B1, the Percent Inhibition of Ligand-induced Interferon Stimulated Response Element (ISRE) Signaling by Soluble Receptors in test [1] stood at 90%; in test [2], 45%; in test [3] it was 92%.
